Results as given in patent US20160116469A1 (INSTITUTE OF ARTHRITIS RESEARCH, published 2016).

Biological target: human TLR4 (human, UniProt O00206 24-839)
Assay: cell-based or functional assay

human TLR4, sequence (O00206 24-839): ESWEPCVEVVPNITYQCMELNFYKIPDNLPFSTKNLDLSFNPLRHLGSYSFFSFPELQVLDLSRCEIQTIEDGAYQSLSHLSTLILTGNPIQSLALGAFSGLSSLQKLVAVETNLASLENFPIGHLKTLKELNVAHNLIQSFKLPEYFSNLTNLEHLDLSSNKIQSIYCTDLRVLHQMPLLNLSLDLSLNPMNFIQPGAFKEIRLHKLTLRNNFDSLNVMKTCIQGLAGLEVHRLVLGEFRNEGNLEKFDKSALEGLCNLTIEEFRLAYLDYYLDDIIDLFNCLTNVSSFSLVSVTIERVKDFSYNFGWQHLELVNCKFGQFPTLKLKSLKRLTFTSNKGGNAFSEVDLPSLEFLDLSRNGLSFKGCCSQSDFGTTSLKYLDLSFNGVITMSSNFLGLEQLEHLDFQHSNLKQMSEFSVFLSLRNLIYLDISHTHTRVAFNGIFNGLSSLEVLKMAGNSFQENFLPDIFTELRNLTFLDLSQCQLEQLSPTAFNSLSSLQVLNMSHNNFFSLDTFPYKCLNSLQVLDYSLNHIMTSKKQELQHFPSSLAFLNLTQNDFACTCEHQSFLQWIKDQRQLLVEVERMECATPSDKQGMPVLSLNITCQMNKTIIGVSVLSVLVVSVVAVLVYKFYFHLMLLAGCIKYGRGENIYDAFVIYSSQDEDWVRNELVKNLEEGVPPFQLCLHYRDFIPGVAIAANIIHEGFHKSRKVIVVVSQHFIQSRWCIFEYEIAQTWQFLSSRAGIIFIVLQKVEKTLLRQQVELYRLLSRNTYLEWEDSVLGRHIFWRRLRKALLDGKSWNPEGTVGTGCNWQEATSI

KSIAYLQMNSLK [PeptideX2]
NF-κB-driven SEAP reporter, human TLR4-transfected HEK293 cells, response relative to E. coli K12 LPS at 100 ng/ml: 10 % of the response to E. coli K12 LPS
